Measurements as given in article PMC10153460.

Experiments:
[1] = target: smc1p-T1117I cohesin (S. cerevisiae) (UniProt P32908)
[2] = target: cohesin with Smc1p-D1164E (S. cerevisiae) (UniProt P32908)
[3] = target: cohesin with Smc1p-T1117W (S. cerevisiae) (UniProt P32908)
Chain of cohesin with Smc1p-T1117W (S. cerevisiae) (P32908 whole entry T1117W, chain 1 of 4): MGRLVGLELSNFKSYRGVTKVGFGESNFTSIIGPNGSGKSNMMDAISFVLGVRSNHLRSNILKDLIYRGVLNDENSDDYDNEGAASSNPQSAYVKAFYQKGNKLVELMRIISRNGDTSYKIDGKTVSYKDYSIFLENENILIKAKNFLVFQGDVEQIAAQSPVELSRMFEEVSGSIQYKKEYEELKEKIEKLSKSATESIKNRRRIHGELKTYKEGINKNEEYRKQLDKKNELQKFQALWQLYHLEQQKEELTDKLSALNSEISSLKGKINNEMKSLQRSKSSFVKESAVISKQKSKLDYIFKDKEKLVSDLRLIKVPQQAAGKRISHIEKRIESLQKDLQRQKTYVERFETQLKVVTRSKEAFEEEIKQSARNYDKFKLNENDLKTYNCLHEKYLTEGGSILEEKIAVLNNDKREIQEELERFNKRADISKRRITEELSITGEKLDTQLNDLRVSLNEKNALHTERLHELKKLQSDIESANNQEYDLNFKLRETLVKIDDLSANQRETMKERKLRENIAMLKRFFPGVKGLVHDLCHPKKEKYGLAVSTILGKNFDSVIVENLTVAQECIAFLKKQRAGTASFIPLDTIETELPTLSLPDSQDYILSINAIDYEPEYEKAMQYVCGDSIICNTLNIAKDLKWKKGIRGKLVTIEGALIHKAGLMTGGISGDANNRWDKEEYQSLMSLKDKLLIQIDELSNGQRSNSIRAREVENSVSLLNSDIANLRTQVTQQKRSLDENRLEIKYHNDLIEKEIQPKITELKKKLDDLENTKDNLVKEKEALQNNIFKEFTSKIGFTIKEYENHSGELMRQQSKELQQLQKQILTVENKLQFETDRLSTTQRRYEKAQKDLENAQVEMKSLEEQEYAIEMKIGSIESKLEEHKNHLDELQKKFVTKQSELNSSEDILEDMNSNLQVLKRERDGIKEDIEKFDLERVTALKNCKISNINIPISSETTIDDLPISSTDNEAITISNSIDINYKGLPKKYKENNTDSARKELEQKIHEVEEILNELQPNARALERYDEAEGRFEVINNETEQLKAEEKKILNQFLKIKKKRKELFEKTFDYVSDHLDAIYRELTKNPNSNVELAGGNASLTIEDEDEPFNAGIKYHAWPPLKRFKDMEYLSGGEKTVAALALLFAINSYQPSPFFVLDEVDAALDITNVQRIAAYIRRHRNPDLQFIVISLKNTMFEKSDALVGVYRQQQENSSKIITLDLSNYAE
Chain of cohesin with Smc1p-T1117W (S. cerevisiae) (P47037 whole entry, chain 2 of 4, further chain): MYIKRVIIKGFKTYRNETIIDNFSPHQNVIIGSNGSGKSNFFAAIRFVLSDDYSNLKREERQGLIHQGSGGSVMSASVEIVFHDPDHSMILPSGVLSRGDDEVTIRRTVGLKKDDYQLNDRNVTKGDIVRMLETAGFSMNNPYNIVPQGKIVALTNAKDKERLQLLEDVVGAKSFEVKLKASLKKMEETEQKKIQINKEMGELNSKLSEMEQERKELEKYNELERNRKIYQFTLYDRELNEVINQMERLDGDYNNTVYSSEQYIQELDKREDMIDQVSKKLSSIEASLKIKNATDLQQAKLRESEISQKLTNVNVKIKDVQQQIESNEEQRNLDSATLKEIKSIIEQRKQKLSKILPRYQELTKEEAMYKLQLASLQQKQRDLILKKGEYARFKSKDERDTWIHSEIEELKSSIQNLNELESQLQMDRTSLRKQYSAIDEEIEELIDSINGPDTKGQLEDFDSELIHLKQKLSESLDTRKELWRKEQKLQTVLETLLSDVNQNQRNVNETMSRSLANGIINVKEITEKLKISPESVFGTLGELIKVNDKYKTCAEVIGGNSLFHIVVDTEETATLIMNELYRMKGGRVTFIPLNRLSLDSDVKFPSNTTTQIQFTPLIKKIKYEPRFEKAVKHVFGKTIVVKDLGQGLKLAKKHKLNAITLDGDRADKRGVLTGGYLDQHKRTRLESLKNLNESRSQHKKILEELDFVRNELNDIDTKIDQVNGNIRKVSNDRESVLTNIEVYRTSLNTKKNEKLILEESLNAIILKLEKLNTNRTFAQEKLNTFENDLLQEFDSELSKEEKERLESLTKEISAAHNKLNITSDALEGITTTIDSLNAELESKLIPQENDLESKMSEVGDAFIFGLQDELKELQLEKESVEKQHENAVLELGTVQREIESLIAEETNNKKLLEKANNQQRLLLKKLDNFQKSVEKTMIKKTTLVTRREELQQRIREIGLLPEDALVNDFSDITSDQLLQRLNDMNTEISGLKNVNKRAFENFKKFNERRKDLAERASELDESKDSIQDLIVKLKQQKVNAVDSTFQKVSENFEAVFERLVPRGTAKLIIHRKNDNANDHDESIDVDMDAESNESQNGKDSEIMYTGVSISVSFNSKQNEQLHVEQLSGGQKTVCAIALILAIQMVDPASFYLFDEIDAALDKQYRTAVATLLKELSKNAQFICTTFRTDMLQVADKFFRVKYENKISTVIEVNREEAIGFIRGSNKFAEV
Chain of cohesin with Smc1p-T1117W (S. cerevisiae) (Q12158 whole entry, chain 3 of 4, further chain): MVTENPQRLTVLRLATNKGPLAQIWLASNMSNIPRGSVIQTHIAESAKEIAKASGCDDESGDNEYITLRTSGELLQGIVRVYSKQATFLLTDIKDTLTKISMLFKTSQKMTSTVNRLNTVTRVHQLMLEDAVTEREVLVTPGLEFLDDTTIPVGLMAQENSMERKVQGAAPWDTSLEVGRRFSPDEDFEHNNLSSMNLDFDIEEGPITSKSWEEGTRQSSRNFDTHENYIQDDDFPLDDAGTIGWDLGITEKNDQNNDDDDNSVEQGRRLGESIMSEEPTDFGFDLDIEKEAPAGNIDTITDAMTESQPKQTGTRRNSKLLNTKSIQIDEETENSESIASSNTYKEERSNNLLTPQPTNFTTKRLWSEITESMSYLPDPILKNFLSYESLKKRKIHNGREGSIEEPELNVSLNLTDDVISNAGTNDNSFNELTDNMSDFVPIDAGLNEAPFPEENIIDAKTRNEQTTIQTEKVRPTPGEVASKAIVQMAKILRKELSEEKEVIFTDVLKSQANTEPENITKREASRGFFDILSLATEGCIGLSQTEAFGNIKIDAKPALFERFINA
Chain of cohesin with Smc1p-T1117W (S. cerevisiae) (P40541 whole entry, chain 4 of 4, further chain): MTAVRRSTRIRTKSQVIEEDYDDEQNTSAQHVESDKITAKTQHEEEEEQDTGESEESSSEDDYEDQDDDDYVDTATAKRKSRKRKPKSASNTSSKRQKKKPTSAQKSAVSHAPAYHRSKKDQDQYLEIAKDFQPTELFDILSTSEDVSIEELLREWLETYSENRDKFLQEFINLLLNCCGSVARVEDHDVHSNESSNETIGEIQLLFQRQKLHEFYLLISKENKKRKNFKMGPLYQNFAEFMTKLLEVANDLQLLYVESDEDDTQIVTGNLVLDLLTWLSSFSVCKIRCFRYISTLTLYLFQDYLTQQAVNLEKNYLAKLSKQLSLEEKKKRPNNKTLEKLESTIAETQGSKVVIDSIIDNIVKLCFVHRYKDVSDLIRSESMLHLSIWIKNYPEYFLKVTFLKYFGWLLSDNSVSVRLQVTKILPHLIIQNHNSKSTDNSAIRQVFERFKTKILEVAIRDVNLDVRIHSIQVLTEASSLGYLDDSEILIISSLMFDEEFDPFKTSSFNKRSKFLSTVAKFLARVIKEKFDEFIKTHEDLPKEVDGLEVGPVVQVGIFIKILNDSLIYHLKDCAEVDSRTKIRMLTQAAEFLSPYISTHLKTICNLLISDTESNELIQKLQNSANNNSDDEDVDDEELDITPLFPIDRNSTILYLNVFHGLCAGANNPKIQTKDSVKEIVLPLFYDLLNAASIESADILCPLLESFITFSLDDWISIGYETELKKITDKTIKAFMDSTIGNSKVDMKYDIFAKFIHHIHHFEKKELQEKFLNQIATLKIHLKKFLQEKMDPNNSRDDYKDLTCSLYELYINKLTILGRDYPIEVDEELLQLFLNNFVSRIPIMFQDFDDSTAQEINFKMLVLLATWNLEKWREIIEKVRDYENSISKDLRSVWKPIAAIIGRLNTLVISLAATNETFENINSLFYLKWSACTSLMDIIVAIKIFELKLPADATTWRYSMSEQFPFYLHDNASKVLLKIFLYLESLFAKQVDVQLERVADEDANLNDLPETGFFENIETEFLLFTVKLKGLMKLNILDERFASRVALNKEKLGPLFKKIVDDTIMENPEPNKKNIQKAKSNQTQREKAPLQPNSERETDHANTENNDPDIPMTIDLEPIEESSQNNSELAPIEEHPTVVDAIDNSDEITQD

ATPase activity of purified cohesin in the presence of DNA with Scc2p, against wild-type cohesin with Scc2p; EnzChek phosphate assay (% greater than wild-type cohesin) [1]: 50 | ATPase activity of purified cohesin in the presence of DNA, induction by Scc2p against that of wild-type cohesin; EnzChek phosphate assay (fold less than wild type) [2]: 2 | ATPase activity of purified cohesin in the presence of DNA, induction by Scc2p against that of wild-type cohesin; EnzChek phosphate assay (fold less than wild type) [3]: 2
Substance: Scc2p/Scc4p (cohesin loader) (from UniProt Q04002 1-1493; P40090 1-624) (complex)
